Reference: PMC5303829, “A CAF40-binding motif facilitates recruitment of the CCR4-NOT complex to mRNAs targeted by Drosophila Roquin” (Nature Communications, 2017)

Columns and labels:
Settings in all cases: both partners purified
[1] = molecular target: T1, Hs CAF40 ARM domain (residues 19–285) (human, UniProt Q92600 19-285); experiment: pull-down; in vitro MBP pulldown: purified MBP-tagged Roquin fragments (40 μg) with equimolar purified CCR4-NOT proteins or subcomplexes on amylose resin; 50 mM HEPES-NaOH pH 7.5, 200 mM NaCl, 2 mM DTT; 1 h; maltose elution, SDS-PAGE, Coomassie
T1 construct: CAF40 (CNOT9) armadillo repeat domain, human, residues 19–285; also called CNOT9; purified CAF40 protein; source: E. coli BL21 (DE3) Star, purified (IMAC, heparin, gel filtration)
T1 sequence (Q92600 19-285): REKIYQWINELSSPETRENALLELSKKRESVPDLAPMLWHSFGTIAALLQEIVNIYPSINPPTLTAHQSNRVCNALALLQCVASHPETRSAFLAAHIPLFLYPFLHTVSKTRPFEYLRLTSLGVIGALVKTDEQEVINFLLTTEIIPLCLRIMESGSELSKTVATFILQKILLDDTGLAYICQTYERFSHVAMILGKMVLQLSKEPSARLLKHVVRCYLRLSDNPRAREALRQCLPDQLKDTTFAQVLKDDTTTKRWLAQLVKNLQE

[2] = molecular target: T2, Hs NOT module (NOT1-SHD, NOT2-C, NOT3-C) (human, UniProt A5YKK6 1833-2361; Q9NZN8 350-540; O75175 607-748); experiment: as above
T2 construct: NOT1 superfamily homology domain (SHD), human, residues 1833–2361; NOT2-C, human, residues 350–540; NOT3-C, human, residues 607–748; also called NOT1-2-3; source: E. coli, purified as previously described; copies: + +
T2 sequence (A5YKK6 1833-2361, chain 1 of 3): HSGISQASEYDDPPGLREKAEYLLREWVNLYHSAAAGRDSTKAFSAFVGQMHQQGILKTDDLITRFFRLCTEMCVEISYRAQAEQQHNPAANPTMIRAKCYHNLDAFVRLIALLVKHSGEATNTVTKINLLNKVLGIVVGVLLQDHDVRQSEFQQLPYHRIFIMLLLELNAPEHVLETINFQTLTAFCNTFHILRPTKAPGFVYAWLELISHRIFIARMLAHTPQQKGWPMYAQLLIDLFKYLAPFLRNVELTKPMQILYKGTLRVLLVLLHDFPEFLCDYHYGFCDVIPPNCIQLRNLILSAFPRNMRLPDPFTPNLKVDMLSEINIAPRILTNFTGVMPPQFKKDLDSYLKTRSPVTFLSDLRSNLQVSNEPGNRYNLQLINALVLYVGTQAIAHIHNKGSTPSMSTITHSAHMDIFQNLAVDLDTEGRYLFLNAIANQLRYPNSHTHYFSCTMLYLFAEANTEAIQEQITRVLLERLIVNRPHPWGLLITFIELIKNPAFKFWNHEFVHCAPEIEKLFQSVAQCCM
T2 sequence (Q9NZN8 350-540, chain 2 of 3): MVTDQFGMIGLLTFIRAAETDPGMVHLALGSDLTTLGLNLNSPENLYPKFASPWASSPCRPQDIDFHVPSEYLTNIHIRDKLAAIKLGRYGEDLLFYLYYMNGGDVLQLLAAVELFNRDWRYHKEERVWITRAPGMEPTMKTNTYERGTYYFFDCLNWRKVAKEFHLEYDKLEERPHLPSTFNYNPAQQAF
T2 sequence (O75175 607-748, chain 3 of 3): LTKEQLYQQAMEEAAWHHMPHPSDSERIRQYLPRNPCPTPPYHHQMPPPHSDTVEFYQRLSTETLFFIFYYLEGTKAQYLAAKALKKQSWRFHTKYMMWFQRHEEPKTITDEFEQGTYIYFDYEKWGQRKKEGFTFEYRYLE

[3] = molecular target: T1, Hs CAF40 ARM domain (residues 19–285); experiment: crystal structure; synthetic CBM peptide mixed with the purified Hs CAF40 ARM domain in an equimolar ratio; 0.1 M NaOAc pH 5.0, 17.5% PEG 4000, 0.1 M AmSO4, 18 °C; 2.15 Å

Row | Binder | binding result [1] | binding result [2] | binding result [3]
1 | EGGIDSGMMLQLEKNLVDIVDPD (peptide, UniProt Q9VV48 790-812, looked up, source: E. coli BL21 (DE3) Star, purified; not shown: MBP, N-terminal, kept) [MBP-tagged Dm Roquin CBM alone] | binds | – | –
2 | MBP-tagged Dm Roq-CN (domain or fragment, Drosophila melanogaster, UniProt Q9VV48 501-702, looked up, source: E. coli BL21 (DE3) Star, purified; not shown: MBP, N-terminal, kept) HYMGSPRGYLDPSLGLSPGGGLPPSHHSPITRLIVPSRYDSRFSGFGGGTPRIPSPREYQANPVAPTQRNANPPNFSVNSNLHKGYMLPASGGDVFHLANPWEQAYLAQQQHPPQHPQQQQPPSSKPNPSRPLSILPATADTSFFEKKPPNSVSIDLDRVPEVNVDAVPLFRRSNNNHNNNNSNSHNNNNNNHGSSLLFWNN | – | binds | –

Second part, the binder after the results:

Row | binding result [1] | binding result [2] | binding result [3] | Binder
3 | – | – | binds | EGGIDSGMMLQLEKNLVDIVD (peptide, UniProt Q9VV48 790-810, looked up, also called Dm CBM; source: synthetic peptide (EMC Microcollections)) [Dm Roquin CBM peptide (residues 790–810)]
4 | binds | binds | – | MBP-tagged Dm Roq-CC (domain or fragment, Drosophila melanogaster, UniProt Q9VV48 702-819, looked up, also called MBP-Roq-CC; not shown: MBP, N-terminal, kept) NTGKDSANFVRSDSILDDDASTFDVPTGSSMLSIYGPICPKSSTTGNWNNFDLGYGGFKSDRNDSFNANKQQQPMWGRKPQLMSEDSFEGGIDSGMMLQLEKNLVDIVDPDDSGIKVD
